Reference: paper PMC10582448

Molecular target: nucleosomes reconstituted in vitro from X. laevis core histones on biotinylated pKYB1 DNA (Xenopus laevis)
Assay: optical tweezers with confocal fluorescence microscopy; nucleosomes on pKYB1 DNA tethered between streptavidin beads, in 1–2 nM fluorescently labelled chaperone; force-extension curves 1–32 pN at 20 nm/s with kymographs at 4 Hz; binding events after unwrapping / at high force (>10 pN); 25 mM HEPES, 50 mM KCl, 0.1 mM EDTA, pH 7.5

Chain of nucleophosmin 1, labelled with Alexa Fluor 532 (P06748 whole entry): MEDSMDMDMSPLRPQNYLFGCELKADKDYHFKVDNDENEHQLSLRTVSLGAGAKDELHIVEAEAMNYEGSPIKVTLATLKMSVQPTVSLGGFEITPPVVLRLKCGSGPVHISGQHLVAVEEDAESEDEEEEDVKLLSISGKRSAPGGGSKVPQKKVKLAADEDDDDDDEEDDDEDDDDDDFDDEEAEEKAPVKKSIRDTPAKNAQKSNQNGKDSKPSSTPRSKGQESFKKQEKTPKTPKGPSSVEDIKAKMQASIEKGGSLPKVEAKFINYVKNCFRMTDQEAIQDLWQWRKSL

percent of the chaperone binding events found after complete unwrapping	Substance
> 90%	SET/template‐activating factor‐Iβ Q69C, labelled with Alexa Fluor 532 (from UniProt Q01105-2 1-277) (natural protein)
> 90%	nucleophosmin 1, labelled with Alexa Fluor 532 (from UniProt P06748 1-294) (natural protein)
